Positions count from the first letter of the chain named. In names and notes the source's numbering stands.
B1: VirB(C5S, Q15C, A297C) (natural protein)
chain: MVDLSNDLLSIKEGCKKEFTLHSGNKVSFIKAKIPHKRIQDLTFVNQKTNVRDQESLTEESLADIIKTIKLQQFFPVIGREIDGRIEILDGTRRRASAIYAGADLEVLYSKEYISTLDARKLANDIQTAKEHSIRELGIGLNFLKVSGMSYKDIAKKENLSRAKVTRAFQAASVPQEIISLFPIASELNFNDYKILFNYYKGLEKANESLSSTLPILKEEIKDLDTNLPPDIYKKEILNIIKKSKNRKQNPSLKVDSLFISKDKRTYIKRKENKTNRTLIFTLSKINKTVQREIDECIRDIISRHLSSS
notes: not shown: GFP, N-terminal, cleaved
B2: VirB (natural protein)
chain: B1 chain with S5C, C15Q, C297A
notes: as for B1
B3: VirB(C5S, I30C) (natural protein)
chain: B1 chain with C15Q, I30C, C297A
notes: also called engineered C5S, I30C; not shown: GFP, N-terminal, cleaved

Assays:
Sfl VirB = target: T1, Sfl VirB (Shigella flexneri, UniProt P0A247); test: isothermal titration calorimetry; format: binding
T1 construct: full length, N-terminal GFP tag removed with HRV-3C protease, made in E. coli BL21-Gold (DE3), dimer; gene on invasion plasmid pINV
T1 sequence (P0A247 whole entry): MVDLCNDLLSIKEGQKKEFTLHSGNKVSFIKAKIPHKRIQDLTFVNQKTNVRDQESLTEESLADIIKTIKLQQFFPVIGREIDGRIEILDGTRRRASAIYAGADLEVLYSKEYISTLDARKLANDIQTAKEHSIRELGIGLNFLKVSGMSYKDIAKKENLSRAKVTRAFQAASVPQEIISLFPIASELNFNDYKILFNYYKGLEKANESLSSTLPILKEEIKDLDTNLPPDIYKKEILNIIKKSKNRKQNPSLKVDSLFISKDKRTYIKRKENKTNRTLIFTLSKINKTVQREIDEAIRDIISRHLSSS

[1] = target: the molecule itself; test: cross-linking; plasmid entrapment assay: 2 uM VirB, 250 uM CTP, 50 nM plasmid DNA, 1 mM BMOE, room temperature; low stringency buffer (150 mM NaCl, 50 mM Tris-HCl pH 7.5, 5 mM MgCl2) or high stringency buffer (25 mM HEPES/NaOH pH 7.5, 500 mM NaCl, 5 mM MgCl2, 1 mM DTT, 10 uM BSA, 0.01% Tween 20); SDS-PAGE and agarose gel
[2] = target: the molecule itself; test: cross-linking; site-specific cysteine cross-linking with 1 mM BMOE; 10 uM protein, with or without 1 mM CTP and 1 uM 40-bp DNA; 150 mM NaCl (also 500/1000 mM), 50 mM Tris-HCl pH 7.5, 5 mM MgCl2; room temperature (25 °C); SDS-PAGE, Coomassie, band quantification

| Molecule | binding result [2] | also measured |
| --- | --- | --- |
| Nc1ccn([C@@H]2O[C@H](COP(=O)(O)OP(=O)(O)OP(=O)(O)O)[C@@H](O)[C@H]2O)c(=O)n1 [CTP] | – | Kd (Sfl VirB): ~1000 nM |
| B1 | – | stoichiometry N [1]: 2 |
| B2 | binds | – |
| B3 | binds | – |
